Reference: publication PMC4280530 (2014)

What was measured:
[1] = biological target: T1, Bacillus thuringiensis (Bt) Cry1Ac toxin (Bacillus thuringiensis, UniProt P05068 1-1178); assay: SPR
[2] = biological target: T1, Bacillus thuringiensis (Bt) Cry1Ac toxin; assay: SPR; remark: listed apart in the source

T1 sequence (P05068 whole entry): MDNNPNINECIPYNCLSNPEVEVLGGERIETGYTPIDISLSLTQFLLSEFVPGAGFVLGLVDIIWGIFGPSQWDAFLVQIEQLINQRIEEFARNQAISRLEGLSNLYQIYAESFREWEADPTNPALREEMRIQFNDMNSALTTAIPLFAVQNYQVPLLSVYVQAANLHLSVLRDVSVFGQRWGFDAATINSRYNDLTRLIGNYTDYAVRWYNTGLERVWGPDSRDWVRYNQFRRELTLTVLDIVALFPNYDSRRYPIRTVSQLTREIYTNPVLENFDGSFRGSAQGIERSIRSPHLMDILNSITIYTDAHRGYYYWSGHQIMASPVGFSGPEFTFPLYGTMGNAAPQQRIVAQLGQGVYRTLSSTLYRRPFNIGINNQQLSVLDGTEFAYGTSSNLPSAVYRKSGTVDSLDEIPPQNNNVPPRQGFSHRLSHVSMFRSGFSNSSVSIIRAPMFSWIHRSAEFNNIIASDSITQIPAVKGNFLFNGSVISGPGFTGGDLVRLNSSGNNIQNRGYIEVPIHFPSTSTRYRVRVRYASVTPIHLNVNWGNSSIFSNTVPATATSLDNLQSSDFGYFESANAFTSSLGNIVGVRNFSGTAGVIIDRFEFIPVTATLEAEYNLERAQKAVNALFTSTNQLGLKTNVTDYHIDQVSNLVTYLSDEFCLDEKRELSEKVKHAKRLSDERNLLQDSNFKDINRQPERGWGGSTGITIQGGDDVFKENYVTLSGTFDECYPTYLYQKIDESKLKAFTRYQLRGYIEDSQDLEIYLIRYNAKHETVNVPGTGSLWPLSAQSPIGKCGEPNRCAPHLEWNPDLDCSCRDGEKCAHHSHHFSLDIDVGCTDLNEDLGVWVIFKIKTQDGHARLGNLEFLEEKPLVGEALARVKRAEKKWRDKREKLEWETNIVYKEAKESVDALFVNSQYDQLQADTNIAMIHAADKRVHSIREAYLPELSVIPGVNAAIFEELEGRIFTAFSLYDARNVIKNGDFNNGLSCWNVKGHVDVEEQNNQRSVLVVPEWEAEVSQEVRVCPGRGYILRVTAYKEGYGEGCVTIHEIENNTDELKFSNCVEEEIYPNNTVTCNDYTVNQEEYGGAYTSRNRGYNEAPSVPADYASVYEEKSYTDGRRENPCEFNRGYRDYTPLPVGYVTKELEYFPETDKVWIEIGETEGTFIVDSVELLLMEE

B1: anti-Cry1Ac nanobody Nb59 (VHH)
VHH: QVQLQESGGGLVQPGGSLRLSCAASGFTFRDYYMTWVRQAPGQGLEWVSSISFGGGRTYYADSVKGRFTISRDNPENTLYLQLSNLKTEDTAMYYCARGRPNADYDRRGQGTQVTVSS
For B1, the koff [1] was 0.00178 s⁻¹ and the Kd [2] was 18 nM.

B2: anti-Cry1Ac nanobody Nb61 (VHH)
VHH: QVQLQESGGGSVQAGGSLRLSCEASENTYNSVYMAWFRQAPEKEREGVAVLSTGGGRTYYTDSVKGRFTISRDNAKNMVYLQMNSLKPDDTAMYYCAATYTGDSYGPSLYYLTPGRYEYWGQGTQVTVSS
B2 gave a koff [1] of 0.00084 s⁻¹ and a Kd [2] of 60.9 nM.

B3: anti-Cry1Ac nanobody Nb58 (VHH)
VHH: QVQLQESGGGLVQPGGSLRLSCTASGFTFSSYEMDWFRRAPGKELEWVAGITSGGEGTSYRNSVKGRFTISRDNAKNTLYLHLNSLKNEDTAMYYCAKDRRALGEVGQGTQVTVSS
With B3 the koff [1] was 0.00151 s⁻¹ and the Kd [2] was 23.2 nM.

B4: anti-Cry1Ac nanobody Nb44 (VHH)
VHH: QVQLQESGGGSVQAGGSLRLSCATSGLTYSARITWFRQAPEKEREGVATFSTGSGSTGYADSVKGRFTISQDNAKNTLYLQMNNLKPEDTAMYYCAADTSTSWRDIVLVARYKYWGQGTQVTVSS
For B4, the koff [1] was 0.0014 s⁻¹ and the Kd [2] was 6.89 nM.
